Laboratory results as given in US20240218374.

Molecular target: Spike S1 & S2 ECD (SARS-CoV-2) (UniProt P0DTC2)
Experiment: filter
[1] = Y=Tyr-dU, p=Nap-dC, SB18T0.01, 37 C

ANNANGNGNNNGANNGNNNGGANG [26874-29_25]
Kd [1]: 1.8 nM

ANNANGNGNNNGANNGNNNGGANGG [26874-29_23]
Kd [1]: 1.6 nM

GGANANNANGNGNNNGANNGNNNGGANG [26874-29_21]
Kd [1]: 2.2 nM

GGGACANNANGNGNNNGANNGNNNGGANG [26874-29_127]
Kd (c3 (not defined) at 5, other dU Tyr-dU, dC Nap-dC, SB18T0.01, 37 C): 0.28 nM

GGGAHANNANGNGNNNGANNGNNNGGANG [26874-29_96]
Kd (ThdU at 5, other dU Tyr-dU, dC Nap-dC, SB18T0.01, 37 C): 0.27 nM

GGGANANHANGNGNNNGANNGNNNGGANG [26874-29_98]
Kd (ThdU at 8, other dU Tyr-dU, dC Nap-dC, SB18T0.01, 37 C): 0.22 nM

GGGANANNANGNGHNNGANNGNNNGGANG [26874-29_100]
Kd (ThdU at 14 as printed (same as _102; position 10 probably meant), other dU Tyr-dU, dC Nap-dC, SB18T0.01, 37 C): 0.49 nM

GGGANANNANGNGHNNGANNGNNNGGANG [26874-29_102]
Kd (ThdU at 14, other dU Tyr-dU, dC Nap-dC, SB18T0.01, 37 C): 0.45 nM

GGGANANNANGNGNNNGANNGNHNGGANG [26874-29_104]
Kd (ThdU at 23, other dU Tyr-dU, dC Nap-dC, SB18T0.01, 37 C): 0.59 nM

GGGANANNANGNGNNNGANNGNNNGGANG [26874-29_47]
Kd (NapdU at 5, other dU Tyr-dU, dC Nap-dC, SB18T0.01, 37 C): 0.31 nM

GGGANANNANGNGNNNGANNGNNNGGANG [26874-29_48]
Kd (FBndU at 8, other dU Tyr-dU, dC Nap-dC, SB18T0.01, 37 C): 0.26 nM

GGGANANNANGNGNNNGANNGNNNGGANG [26874-29_49]
Kd (NapdU at 8, other dU Tyr-dU, dC Nap-dC, SB18T0.01, 37 C): 0.4 nM

GGGANANNANGNGNNNGANNGNNNGGANG [26874-29_50]
Kd (FBndU at 10, other dU Tyr-dU, dC Nap-dC, SB18T0.01, 37 C): 0.31 nM

GGGANANNANGNGNNNGANNGNNNGGANG [26874-29_51]
Kd (NapdU at 10, other dU Tyr-dU, dC Nap-dC, SB18T0.01, 37 C): 0.36 nM

GGGANANNANGNGNNNGANNGNNNGGANG [26874-29_52]
Kd (Y=Tyr-dU, p=Nap-dC, position 14 FBn-dU, Kd/Kd_20 0.27): 0.11 nM

GGGANANNANGNGNNNGANNGNNNGGANG [26874-29_53]
Kd (NapdU at 14, other dU Tyr-dU, dC Nap-dC, SB18T0.01, 37 C): 0.2 nM

GGGANANNANGNGNNNGANNGNNNGGANG [26874-29_54]
Kd (FBndU at 23, other dU Tyr-dU, dC Nap-dC, SB18T0.01, 37 C): 0.21 nM

GGGANANNANGNGNNNGANNGNNNGGANG [26874-29_55]
Kd (NapdU at 23, other dU Tyr-dU, dC Nap-dC, SB18T0.01, 37 C): 0.25 nM

GGGANANNANGNGNNNGANNGNNNGGANG [26874-29_56]
Kd (TrpdU at 5, other dU Tyr-dU, dC Nap-dC, SB18T0.01, 37 C): 0.54 nM

GGGANANNANGNGNNNGANNGNNNGGANG [26874-29_57]
Kd (BndU at 5, other dU Tyr-dU, dC Nap-dC, SB18T0.01, 37 C): 0.21 nM

GGGANANNANGNGNNNGANNGNNNGGANG [26874-29_58]
Kd (TrpdU at 8, other dU Tyr-dU, dC Nap-dC, SB18T0.01, 37 C): 0.27 nM

GGGANANNANGNGNNNGANNGNNNGGANG [26874-29_59]
Kd (BndU at 8, other dU Tyr-dU, dC Nap-dC, SB18T0.01, 37 C): 0.18 nM

GGGANANNANGNGNNNGANNGNNNGGANG [26874-29_60]
Kd (Y=Tyr-dU, p=Nap-dC, position 10 Trp-dU, Kd/Kd_20 0.24): 0.098 nM

GGGANANNANGNGNNNGANNGNNNGGANG [26874-29_61]
Kd (BndU at 10, other dU Tyr-dU, dC Nap-dC, SB18T0.01, 37 C): 0.31 nM

GGGANANNANGNGNNNGANNGNNNGGANG [26874-29_62]
Kd (Y=Tyr-dU, p=Nap-dC, position 14 Trp-dU, Kd/Kd_20 0.30): 0.13 nM

GGGANANNANGNGNNNGANNGNNNGGANG [26874-29_63]
Kd (BndU at 14, other dU Tyr-dU, dC Nap-dC, SB18T0.01, 37 C): 0.16 nM

GGGANANNANGNGNNNGANNGNNNGGANG [26874-29_64]
Kd (TrpdU at 23, other dU Tyr-dU, dC Nap-dC, SB18T0.01, 37 C): 0.27 nM

GGGANANNANGNGNNNGANNGNNNGGANG [26874-29_65]
Kd (BndU at 23, other dU Tyr-dU, dC Nap-dC, SB18T0.01, 37 C): 0.28 nM

GGGANANNANGNGNNNGANNGNNNGGANG [26874-29_66]
Kd (PBndU at 5, other dU Tyr-dU, dC Nap-dC, SB18T0.01, 37 C): 0.19 nM

GGGANANNANGNGNNNGANNGNNNGGANG [26874-29_68]
Kd (PBndU at 8, other dU Tyr-dU, dC Nap-dC, SB18T0.01, 37 C): 0.21 nM

GGGANANNANGNGNNNGANNGNNNGGANG [26874-29_70]
Kd (PBndU at 10 (printed sequence lacks Y at 10, F^ in place), other dU Tyr-dU, dC Nap-dC, SB18T0.01, 37 C): 0.2 nM

GGGANANNANGNGNNNGANNGNNNGGANG [26874-29_72]
Kd (Y=Tyr-dU, p=Nap-dC, position 14 PBn-dU, Kd/Kd_20 0.33): 0.14 nM

GGGANANNANGNGNNNGANNGNNNGGANG [26874-29_74]
Kd (PBndU at 23, other dU Tyr-dU, dC Nap-dC, low plateau, very faint spots): 0.46 nM

GGGANANNANGNGNNNGANNGNNNGGANG [26874-29_76]
Kd (NEdU at 5, other dU Tyr-dU, dC Nap-dC, SB18T0.01, 37 C): 0.46 nM

GGGANANNANGNGNNNGANNGNNNGGANG [26874-29_77]
Kd (Y=Tyr-dU, p=Nap-dC, position 5 PE-dU, Kd/Kd_20 0.32): 0.13 nM

GGGANANNANGNGNNNGANNGNNNGGANG [26874-29_78]
Kd (NEdU at 8, other dU Tyr-dU, dC Nap-dC, SB18T0.01, 37 C): 0.24 nM

GGGANANNANGNGNNNGANNGNNNGGANG [26874-29_79]
Kd (PEdU at 8, other dU Tyr-dU, dC Nap-dC, SB18T0.01, 37 C): 0.17 nM

GGGANANNANGNGNNNGANNGNNNGGANG [26874-29_80]
Kd (NEdU at 10, other dU Tyr-dU, dC Nap-dC, SB18T0.01, 37 C): 0.16 nM

GGGANANNANGNGNNNGANNGNNNGGANG [26874-29_81]
Kd (PEdU at 10, other dU Tyr-dU, dC Nap-dC, SB18T0.01, 37 C): 0.16 nM

GGGANANNANGNGNNNGANNGNNNGGANG [26874-29_82]
Kd (NEdU at 14, other dU Tyr-dU, dC Nap-dC, SB18T0.01, 37 C): 0.18 nM

GGGANANNANGNGNNNGANNGNNNGGANG [26874-29_83]
Kd (PEdU at 14, other dU Tyr-dU, dC Nap-dC, SB18T0.01, 37 C): 0.19 nM

GGGANANNANGNGNNNGANNGNNNGGANG [26874-29_84]
Kd (NEdU at 23, other dU Tyr-dU, dC Nap-dC, SB18T0.01, 37 C): 0.44 nM

GGGANANNANGNGNNNGANNGNNNGGANG [26874-29_85]
Kd (PEdU at 23, other dU Tyr-dU, dC Nap-dC, low plateau): 0.29 nM

GGGANANNANGNGNNNGANNGNNNGGANG [26874-29_86]
Kd (BFdU at 5, other dU Tyr-dU, dC Nap-dC, SB18T0.01, 37 C): 0.21 nM

GGGANANNANGNGNNNGANNGNNNGGANG [26874-29_87]
Kd (PPdU at 5, other dU Tyr-dU, dC Nap-dC, SB18T0.01, 37 C): 0.25 nM

GGGANANNANGNGNNNGANNGNNNGGANG [26874-29_88]
Kd (BFdU at 8, other dU Tyr-dU, dC Nap-dC, SB18T0.01, 37 C): 0.19 nM

GGGANANNANGNGNNNGANNGNNNGGANG [26874-29_89]
Kd (PPdU at 8, other dU Tyr-dU, dC Nap-dC, SB18T0.01, 37 C): 0.2 nM

GGGANANNANGNGNNNGANNGNNNGGANG [26874-29_90]
Kd (Y=Tyr-dU, p=Nap-dC, position 10 BF-dU, Kd/Kd_20 0.33): 0.14 nM

GGGANANNANGNGNNNGANNGNNNGGANG [26874-29_91]
Kd (BFdU at 14 (Table 6B says PPdU), other dU Tyr-dU, dC Nap-dC, SB18T0.01, 37 C): 0.17 nM

GGGANANNANGNGNNNGANNGNNNGGANG [26874-29_92]
Kd (PPdU at 10 (Table 6B says BFdU), other dU Tyr-dU, dC Nap-dC, SB18T0.01, 37 C): 0.18 nM

GGGANANNANGNGNNNGANNGNNNGGANG [26874-29_93]
Kd (PPdU at 14, other dU Tyr-dU, dC Nap-dC, SB18T0.01, 37 C): 0.24 nM

GGGANANNANGNGNNNGANNGNNNGGANG [26874-29_94]
Kd (BFdU at 23, other dU Tyr-dU, dC Nap-dC, SB18T0.01, 37 C): 0.48 nM

GGGANANNANGNGNNNGANNGNNNGGANG [26874-29_95]
Kd (PPdU at 23, other dU Tyr-dU, dC Nap-dC, SB18T0.01, 37 C): 0.42 nM

GGGANANNANGNGNNNGANNGNNNGGANG [26874-29_97]
Kd (ThrdU at 5, other dU Tyr-dU, dC Nap-dC, SB18T0.01, 37 C): 0.29 nM

GGGANANNANGNGNNNGANNGNNNGGANG [26874-29_99]
Kd (ThrdU at 8, other dU Tyr-dU, dC Nap-dC, SB18T0.01, 37 C): 0.24 nM

GGGANANNANGNGNNNGANNGNNNGGANG [26874-29_101]
Kd (ThrdU at 10, other dU Tyr-dU, dC Nap-dC, SB18T0.01, 37 C): 0.36 nM

GGGANANNANGNGNNNGANNGNNNGGANG [26874-29_103]
Kd (ThrdU at 14, other dU Tyr-dU, dC Nap-dC, SB18T0.01, 37 C): 0.49 nM

GGGANANNANGNGNNNGANNGNNNGGANG [26874-29_105]
Kd (ThrdU at 23, other dU Tyr-dU, dC Nap-dC, SB18T0.01, 37 C): 0.79 nM

GGGANANNANGNGNNNGANNGNNNGGANG [26874-29_106]
Kd (MOEdU at 5, other dU Tyr-dU, dC Nap-dC, SB18T0.01, 37 C): 0.66 nM

GGGANANNANGNGNNNGANNGNNNGGANG [26874-29_107]
Kd (2NapdU at 5, other dU Tyr-dU, dC Nap-dC, SB18T0.01, 37 C): 0.49 nM

GGGANANNANGNGNNNGANNGNNNGGANG [26874-29_108]
Kd (MOEdU at 8, other dU Tyr-dU, dC Nap-dC, SB18T0.01, 37 C): 0.72 nM

GGGANANNANGNGNNNGANNGNNNGGANG [26874-29_109]
Kd (2NapdU at 8, other dU Tyr-dU, dC Nap-dC, SB18T0.01, 37 C): 0.48 nM

GGGANANNANGNGNNNGANNGNNNGGANG [26874-29_110]
Kd (MOEdU at 10, other dU Tyr-dU, dC Nap-dC, SB18T0.01, 37 C): 0.43 nM
